In assay [1] the target is T1, cholera toxin B subunit (Vibrio cholerae), P01556.
T1 chain: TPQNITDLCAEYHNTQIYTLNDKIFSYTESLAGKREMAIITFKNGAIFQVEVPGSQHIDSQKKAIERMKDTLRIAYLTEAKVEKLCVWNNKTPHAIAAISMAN
The assay is described as follows: solid-phase ELISA, inhibition of CTB binding to GM1, peptide at its IC50 for GM1. (In an ELISA, binding on a coated surface is turned into a signal by an enzyme label.)

In assay [2] the target is T1, cholera toxin B subunit (Vibrio …). The assay is described as follows: solid-phase ELISA, competition: peptide inhibits CTB binding to GM1.
Assay [3] has the same target. The assay is described as follows: solid-phase ELISA, inhibition of CTB binding to Lipid A, peptide at 100 pmol/mL.
Assay [4] shares this target. In words: solid-phase ELISA, inhibition of CTB binding to F-GM1, peptide at 100 pmol/mL.
Assay [5] shares this target. In words: solid-phase ELISA, inhibition of CTB binding to GD1b, peptide at 100 pmol/mL.
Assay [6] has the same target. The assay is described as follows: solid-phase ELISA, inhibition of CTB binding to LOSGM1, peptide at 100 pmol/mL.
Assay [7] shares this target.

Read-outs that look alike come from different tables or passages of the source.

Turning to YSPFHKWFPSMH (modifications not checked) [PGM1-2], the inhibition percent in assay [1] came to 50%. Besides, the IC50 in assay [2] came to 46.1 nM.
The matching figures for FPAWFTKLYPRT (modifications not checked) [PGM1-4]: 50% and 77.4 nM.
For VSWKTWFPNLAV (modifications not checked) [PGM1-1] the same measures were 50% and 38 nM.
For DASKALRSSGMP (modifications not checked) [PGM1-6], the inhibition percent in assay [3], in assay [4], in assay [5], in assay [6] and in assay [7] was -0% throughout.
In the case of QINTAKWWKTHF (modifications not checked) [PGM1-5], the inhibition percent in assay [1] was 50%. This molecule also had an IC50 in assay [2] of 34.4 nM.
The molecule IPQVWRDWFKLP (modifications not checked) [PGM1-3] gave an inhibition percent in assay [1] of 50%. The molecule further registered an IC50 in assay [2] of 9.6 nM.

In general, IC50 refers to the concentration needed to halve the response being measured. A high value points to weaker potency in that assay.

The values are drawn from patent US20130115170A1.
